# Patent publication US20240059757A1 (VIR BIOTECHNOLOGY, published 2024)
# Like-named read-outs stand apart in the source and are kept apart here.
# B1: S2D43 (antibody, V domains shown)
# VH: QVTLKESGPTLVKPTQTLTLTCTFSGFSLSTSGVGVGWLRQPPGKALEWLALIYWDDDKRYSPSLKNRLTVTKDTSKNQVVLTMTNLDPVDTATYYCAHDNTLGGSSTWQSTFDYWGQGTLVTVSS
# VL: QSVLTQPPSVSEAPRQRVTISCSGSNSNIGNNAVHWYQQLPGKAPKLLIYYDDLLPSGVSDRFSGSKSGTSASLAISGLQSEDEADYYCAAWDDRMNGPVFGGGTKLTVL
# B2: S2X259 (antibody, V domains shown)
# VH: QVQLVQSGAEVKKPGSSVKVSCKASGGIFNTYTISWVRQAPGQGLEWMGRIILMSGMANYAQKIQGRVTITADKSTSTAYMELTSLRSDDTAVYYCARGFNGNYYGWGDDDAFDISGQGTLVTVYS
# VL: QTVLTQPPSVSGAPGQRVTISCTGSNSNIGAGYDVHWYQQLPGTAPKLLICGNSNRPSGVPDRFSGSKSGTSASLAITGLQAEDEADYYCQSYDSSLSGPNWVFGGGTKLTVL
# B3: S2X259 Fab (Fab, V domains shown)
# VH: B2 VH
# VL: B2 VL
# B4: S2X190 (antibody, V domains shown)
# VH: EVQLVESGGGVVQPGRSLRLSCAASGFPFSTYGMHWVRQAPGKGLEWVAVIWYDGSTKYYADSVKGRFTISRDNSKNTLYLQMNSLRAEDTALYYCARVHSSGPGDEYFQHWGQGTLLTVSS
# VL: DIVMTQSPSSLSASVGDRVTITCRASQGISSGLAWYQQKPGKGPKVLIYDASSLESGVPSRFSGSASGTDFTLTISSLQPEDFATYFCQQFYSYPLTFGGGTKVEIK
# B5: S2X132 (antibody, V domains shown)
# VH: EVQLVESGGGLVQPGGSLRLSCAASGFTVSSNYMSWVRQAPGKGLEWVSVIYSGGNTYYADSVKGRFTISRDNSKNTLYLQMISLRAEDTAVYYCARDRRLPSIIFGLDVWGQGTTVTVSS
# VL: QSALTQPASVSGSPGQSITISCTGTSSDVGGNNHVSWYRQHPGKAPKLMIYEVSNRPSGVSNRFSGSKSGNTASLTISGLQAGDEADYYCSSFTTYTTDVVFGGGTKLTVL
# B6: S2X200 (antibody, V domains shown)
# VH: EVHLVESGGGLIQPGGSLRLSCAASGITVSSNYMSWVRQAPGKGLEWVSVIYSGGSTFYADSVKGRFTISRDNSKNTVYLQMNSLRAEDTAVYYCARDLVTYGMDVWGQGTTVTVSS
# VL: EIVLTQSPSFLSASVGDRVTITCRASQGISSYLAWYQQKPGKAPKLLIYAASTLQSGVPSRFSGSGSGTEFTLTISSLQPEDFATYYCQQLNGDPPIFGHGTRLEIK
# B7: S2F1 (antibody, V domains shown)
# VH: EVQLLESGGGLVQPGGSLRLSCAGSGFSVSNHAMSWVRQAPGKGLEWVSAIGGSDSTTYYADSVKGRFAISRDNSKNTLYLQMNSLRADDTAIYYCAKDNYTSTWFPFDYWGQGTQVIVSS
# VL: DVVMTQSPLSLPVTLGQPASISCRSSHSLVHGDGNTYLNWFQQRPGQSPRRLIHKVSNRDSGVPDRFSGSGSGTDFTLKISRVEAEDVGVYYCMQGSYWPPWTFGQGTKVEIN
# B8: S2D60 (antibody, V domains shown)
# VH: EVQLVQSGPEVKKPGTSVKVSCKASGFTFMSSAVQWVRQARGQRLEWIGWIVVGSGNTNYTQKFRERVTITRDMSTSTAYMELSSLRSEDTAVYYCAAPRCSGGSCHDGFDIWGQGTMVTVSS
# VL: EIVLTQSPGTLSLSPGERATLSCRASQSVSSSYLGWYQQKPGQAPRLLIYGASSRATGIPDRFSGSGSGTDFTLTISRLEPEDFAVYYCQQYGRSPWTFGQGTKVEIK
# Key:
# [1] = biological target: T1, SARS-CoV-2 RBD (residues 331-550 of spike from BetaCoV/Wuhan-Hu-1/2019, accession number MN908947) (SARS-CoV-2 Wuhan-Hu-1, UniProt P0DTC2 331-550); assay: ELISA, plate coated with SARS-CoV-2 RBD; antibodies as rIgG1-LS
# [2] = biological target: T2, SARS-CoV RBD (Sino Biological) (SARS-CoV, UniProt P59594 306-527); assay: BLI
# [3] = biological target: T1, SARS-CoV-2 RBD (residues 331-550 of …); assay: BLI
# SARS-CoV Spike protein [4] = biological target: T3, SARS-CoV Spike protein (SARS-CoV, UniProt P59594 14-1255); assay: cell-based or functional assay
# [5] = biological target: T2, SARS-CoV RBD (Sino Biological); assay: ELISA
# [6] = biological target: T1, SARS-CoV-2 RBD (residues 331-550 of …); assay: ELISA
# SARS-CoV-2 Spike protein [7] = biological target: T4, SARS-CoV-2 Spike protein (SARS-CoV-2 Wuhan-Hu-1, UniProt P0DTC2 14-1273); assay: cell-based or functional assay
# [8] = biological target: T2, SARS-CoV RBD (Sino Biological)
# [9] = biological target: T1, SARS-CoV-2 RBD (residues 331-550 of …)
# [10] = biological target: T5, SARS-CoV-2 RBD-mouse Fc (Sino Biological) (SARS-CoV-2, UniProt P0DTC2 331-541)
# [11] = biological target: T1, SARS-CoV-2 RBD (residues 331-550 of …); remark: listed apart in the source
# [12] = biological target: T2, SARS-CoV RBD (Sino Biological); assay: BLI; remark: listed apart in the source
# [13] = biological target: T1, SARS-CoV-2 RBD (residues 331-550 of …); assay: BLI; remark: listed apart in the source
# [14] = biological target: T2, SARS-CoV RBD (Sino Biological); remark: listed apart in the source
# SARS-CoV Spike protein [15] = biological target: T3, SARS-CoV Spike protein
# [16] = biological target: T1, SARS-CoV-2 RBD (residues 331-550 of …); remark: listed apart in the source
# SARS-CoV-2 Spike protein [17] = biological target: T4, SARS-CoV-2 Spike protein; assay: cell-based or functional assay; remark: listed apart in the source
# SARS-CoV Spike protein [18] = biological target: T3, SARS-CoV Spike protein; assay: cell-based or functional assay; remark: listed apart in the source
# SARS-CoV-2 Spike protein [19] = biological target: T4, SARS-CoV-2 Spike protein; assay: cell-based or functional assay; remark: listed apart in the source
# [20] = biological target: T2, SARS-CoV RBD (Sino Biological); remark: listed apart in the source
# [21] = biological target: T1, SARS-CoV-2 RBD (residues 331-550 of …); remark: listed apart in the source
# [22] = biological target: T5, SARS-CoV-2 RBD-mouse Fc (Sino …); remark: listed apart in the source
# [23] = biological target: T1, SARS-CoV-2 RBD (residues 331-550 of …); assay: BLI (Octet): antibody on Protein A pins, SARS-CoV-2 RBD at 6, 1.5 and 0.4 µg/ml
# [24] = biological target: T1, SARS-CoV-2 RBD (residues 331-550 of …); assay: as above; remark: listed apart in the source
# [25] = biological target: T1, SARS-CoV-2 RBD (residues 331-550 of …); remark: listed apart in the source
# [26] = biological target: T1, SARS-CoV-2 RBD (residues 331-550 of …); assay: ELISA, plate coated with SARS-CoV-2 RBD, OD405nm
# [27] = biological target: T1, SARS-CoV-2 RBD (residues 331-550 of …); assay: ELISA, plate coated with SARS-CoV-2 RBD; antibodies as rIgG1-LS; remark: listed apart in the source
# SARS-CoV-2 Spike protein [28] = biological target: T4, SARS-CoV-2 Spike protein; assay: cell-based or functional assay; remark: listed apart in the source
# [29] = biological target: T2, SARS-CoV RBD (Sino Biological); assay: ELISA; remark: listed apart in the source
binder,measurement,setting,value
B1,binding result,[1],binds
B2,Kd,[2],0.537 nM
same,Kd,[3],≤ 0.001 nM
same,neutralization IC50,SARS-CoV Spike protein [4],0.0806 µg/mL
same,EC50,[5],0.0285 µg/mL
same,EC50,[6],0.0343 µg/mL
same,neutralization IC50,SARS-CoV-2 Spike protein [7],0.231 µg/mL
same,IC50,[8],0.01 µg/mL
same,IC50,[9],0.00921 µg/mL
same,IC50,[10],0.0221 µg/mL
same,EC50 (read off the curve),[11],~7 µg/mL
same,Kd,[12],0.862 nM
same,Kd,[13],0.0874 nM
same,EC50,[14],0.00151 µg/mL
same,EC50,SARS-CoV Spike protein [15],0.00215 µg/mL
same,EC50,[16],0.00352 µg/mL
same,neutralization IC50,SARS-CoV-2 Spike protein [17],0.046 µg/mL
same,neutralization IC50,SARS-CoV Spike protein [18],0.189 µg/mL
same,neutralization IC50,SARS-CoV-2 Spike protein [19],0.184 µg/mL
B3,Kd,[20],1.6 nM
same,Kd,[21],0.08 nM
B4,IC50,[22],0.02 µg/mL
same,Kd,[23],0.923 nM
B5,IC50,[22],0.0248 µg/mL
same,Kd,[24],0.709 nM
B6,EC50,[25],0.00151 µg/mL
B7,binding result,[26],binds
B8,EC50 (read off the curve),[27],~0.1 µg/mL
same,neutralization IC50,SARS-CoV-2 Spike protein [28],0.012 µg/mL
same,neutralization IC80,SARS-CoV-2 Spike protein [28],0.04 µg/mL
same,neutralization IC90,SARS-CoV-2 Spike protein [28],0.084 µg/mL
same,neutralization IC95,SARS-CoV-2 Spike protein [28],0.164 µg/mL
same,binding result,[29],no binding
